The values that follow come from patent publication US20220169722A1 (WUXI BIOLOGICS IRELAND, published 2022).

As usually defined, the EC50 is the concentration giving half of the maximal effect. Read a low EC50 as an effect from little substance. The term IC50 denotes the concentration that inhibits the measured activity by half. A higher IC50 goes with weaker potency.

In assay [1] the target is T1, mouse LAG-3 on transfected cells (mouse, UniProt Q61790 24-521).
T1 construct: whole, on cells; Flp-In-CHO cells transfected with mouse LAG-3; also called cell surface mouse LAG-3; murine LAG-3
T1 sequence (looked up): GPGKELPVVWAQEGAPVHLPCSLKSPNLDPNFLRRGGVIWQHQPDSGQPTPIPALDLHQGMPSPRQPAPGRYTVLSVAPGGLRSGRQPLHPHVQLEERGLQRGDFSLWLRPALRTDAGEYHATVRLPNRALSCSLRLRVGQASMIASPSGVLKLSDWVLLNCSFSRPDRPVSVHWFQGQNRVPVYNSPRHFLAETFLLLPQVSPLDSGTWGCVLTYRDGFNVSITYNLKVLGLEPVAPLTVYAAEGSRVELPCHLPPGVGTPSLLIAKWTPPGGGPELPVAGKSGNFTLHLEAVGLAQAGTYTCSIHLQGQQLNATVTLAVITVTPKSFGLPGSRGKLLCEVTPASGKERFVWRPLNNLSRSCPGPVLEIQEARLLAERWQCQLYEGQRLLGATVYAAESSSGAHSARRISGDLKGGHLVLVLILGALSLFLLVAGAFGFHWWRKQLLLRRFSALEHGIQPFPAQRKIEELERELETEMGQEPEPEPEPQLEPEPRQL
The assay can be described thus: FACS on mouse LAG-3 transfected cells. As for the experimental part:
(§1) Similarly, cross-reactivity to cynomolgus or murine LAG-3 was tested by FACS with cyno or murine LAG-3 transfected cell lines.

The next assay concerns the target T2, mFc-tagged mouse LAG-3 (mouse, UniProt Q61790 24-442).
T2 construct: extracellular domain; also called mFc-tagged mouse protein
T2 sequence (looked up): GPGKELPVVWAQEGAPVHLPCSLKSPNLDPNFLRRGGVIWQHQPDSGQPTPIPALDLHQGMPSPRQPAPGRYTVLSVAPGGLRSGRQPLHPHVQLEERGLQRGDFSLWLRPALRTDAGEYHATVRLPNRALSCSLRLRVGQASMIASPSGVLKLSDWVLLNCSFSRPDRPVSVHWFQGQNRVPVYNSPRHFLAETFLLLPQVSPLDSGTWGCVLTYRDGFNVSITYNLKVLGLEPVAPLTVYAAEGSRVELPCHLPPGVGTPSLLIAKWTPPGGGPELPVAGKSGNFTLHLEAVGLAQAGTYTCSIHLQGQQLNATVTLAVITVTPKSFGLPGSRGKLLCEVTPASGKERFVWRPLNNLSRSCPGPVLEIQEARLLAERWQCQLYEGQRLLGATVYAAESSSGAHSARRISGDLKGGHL
The assay can be described thus: FACS competition; blocks mFc-mouse LAG-3 binding to MHC-II on A20 cells.

The target of assay [2] is T3, human LAG-3 on transfected cells (human, UniProt P18627 23-525).
T3 construct: whole, on cells; Flp-In-293 or CHO-K1 cells transfected with full length human LAG-3; also called cell surface human LAG-3
T3 sequence (looked up): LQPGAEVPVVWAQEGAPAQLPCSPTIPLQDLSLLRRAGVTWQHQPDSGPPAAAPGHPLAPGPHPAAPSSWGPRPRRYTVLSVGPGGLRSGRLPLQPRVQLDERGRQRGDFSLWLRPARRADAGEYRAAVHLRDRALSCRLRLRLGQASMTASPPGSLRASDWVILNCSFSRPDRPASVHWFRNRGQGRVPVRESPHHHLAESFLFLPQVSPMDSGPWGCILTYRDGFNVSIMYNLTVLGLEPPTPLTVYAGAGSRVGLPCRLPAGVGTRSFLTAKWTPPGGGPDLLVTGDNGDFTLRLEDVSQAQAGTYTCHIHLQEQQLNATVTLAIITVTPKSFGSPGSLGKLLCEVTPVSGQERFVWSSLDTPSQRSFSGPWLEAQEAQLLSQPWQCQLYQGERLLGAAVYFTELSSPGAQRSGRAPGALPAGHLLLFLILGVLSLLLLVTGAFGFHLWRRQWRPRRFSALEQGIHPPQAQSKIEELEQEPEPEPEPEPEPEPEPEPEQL
The assay can be described thus: FACS, serial dilutions on human LAG-3 transfected cells, PE-labeled secondary antibody. Background: In flow cytometry, cells or beads pass a laser one at a time.

Assay [3] addresses T4, cynomolgus LAG-3 on transfected cells (cynomolgus monkey).
T4 construct: whole, on cells; 293F cells transfected with cynomolgus LAG-3; also called cell surface cynomolgus LAG-3; monkey LAG-3
The experiment in a line: FACS, serial dilutions on cynomolgus LAG-3 transfected cells, PE-labeled secondary antibody. As for the experimental part: as §1

The target in assay [4] is T5, mouse Fc (mFc)-tagged human LAG-3 (human, UniProt P18627 23-450).
T5 construct: extracellular domain
T5 sequence (looked up): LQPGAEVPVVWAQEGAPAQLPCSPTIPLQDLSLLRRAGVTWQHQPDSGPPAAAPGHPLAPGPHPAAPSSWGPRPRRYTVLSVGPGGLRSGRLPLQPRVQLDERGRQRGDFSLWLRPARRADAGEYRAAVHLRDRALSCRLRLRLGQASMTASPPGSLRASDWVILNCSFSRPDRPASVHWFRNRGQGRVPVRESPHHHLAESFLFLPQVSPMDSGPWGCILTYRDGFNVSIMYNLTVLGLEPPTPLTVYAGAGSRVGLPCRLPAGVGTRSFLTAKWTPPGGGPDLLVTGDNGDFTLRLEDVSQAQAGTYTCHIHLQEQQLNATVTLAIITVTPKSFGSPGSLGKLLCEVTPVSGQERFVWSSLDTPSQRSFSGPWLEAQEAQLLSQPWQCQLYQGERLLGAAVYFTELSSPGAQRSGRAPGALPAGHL
The assay can be described thus: ELISA blocking: antibody pre-mixed with mFc-tagged human LAG-3, added to plates coated with human LSECtin (blocked ligand); detection goat anti-mouse IgG Fc-HRP. As for the experimental part:
(§2) 96-well plates were coated with human LSECtin or Galectin-3 at 0.5 μg/ml overnight at 4° C., respectively. […] After blocking and washing, the mixture was transferred to the plates and incubated at room temperature for 1 h. The plates were then washed and subsequently incubated with the secondary antibody goat-anti Mouse IgG Fc-HRP for 1 h. After washing, TMB substrate was added and the color reaction was stopped by 2M HCl. The absorbance at 450 nm was read using a microplate reader.
(ELISA stands for enzyme-linked immunosorbent assay.)

For assay [5], the target named is T5, mouse Fc (mFc)-tagged human LAG-3. The assay can be described thus: ELISA blocking: antibody pre-mixed with mFc-tagged human LAG-3, added to plates coated with human Galectin-3 (blocked ligand); detection goat anti-mouse IgG Fc-HRP. As for the experimental part: as §2
For assay [6] the target is unchanged. The experiment in a line: FACS blocking: antibody pre-mixed with mFc-tagged human LAG-3, added to Raji cells; blocked ligand: human MHC-II on Raji cells; detection goat anti-mouse IgG Fc-PE. As for the experimental part: The mixture was transferred into the 96-well plates seeded with Raji cells. Goat anti-mouse IgG Fc-PE antibody was used to detect the binding of LAG-3 protein to Raji cells. The mean fluorescence intensity (MFI) was evaluated by flow cytometry and analyzed by FlowJo.

B1: W3396-R2-1 (Fc fusion)
VHH: QVQLVESGGGVVQPGGSLRLSCAASGLTLSQYTMGWFRQAPGKERELVAAIHWTSSVTDYADSVYGRFTISRDDSKNTGYLQMNSLRAEDTAVYYCAATWYYTHRGSFDYWGQGTLVTVSS
Turning to B1, the results for the EC50 in assay [1], in assay [2] and in assay [3] were 100 pM, 364 pM and 2340 pM, respectively. The IC50 in the assay with mFc-tagged mouse LAG-3 came to 2900 pM; in assay [4], 642 pM; in assay [5], 926 pM; in assay [6], 840 pM.

B2: W3396-R2-13 (Fc fusion)
VHH: QVQLVESGGGVVQPGGSLRLSCAASGLTLSQYTMGWFRQAPGKERELVAAIHWTSSVTDYADSVRGRFTISRDDSKNTGYLQMNSLRAEDTAVYYCAATWYYTHRGSFDYWGQGTLVTVSS
For the molecule B2, the IC50 with mFc-tagged mouse LAG-3 was 2400 pM; in assay [4], 797 pM; in assay [5], 1300 pM; in assay [6], 460 pM. Moreover, the EC50 in assay [3] turned out to be 2160 pM.
